{"source": "the nanobody polyreactivity screen of Harvey et al. (2022)", "data": [{"test": "yeast display, Sf9 membrane polyspecificity reagent, FACS + sequencing; frameworks hold sequencing errors", "method_in_brief": "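Nanobodies came from a synthetic yeast display library in Saccharomyces cerevisiae BJ5465, induced with galactose for 36–48 hours and stained for 1 hour at 4 °C with 10% biotinylated, detergent-solubilized Sf9 membrane reagent. Cells were enriched on streptavidin microbeads and then FACS-sorted, with low and high (top ~1%) gates set on anti-HA fluorescence for expression and streptavidin fluorescence for reagent binding. Each polyreactivity label reflects the gate a clone came from. Genes were amplified by colony PCR, sequenced by MiSeq 2 × 250 and filtered by CDR length.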", "values": [{"sequence": "QVQLVESGGGLVQAGGSLRLSCAASGSTFGYYAMGWYRQAPGKERELVAAISSGGSTNYADSVKGRFTISRDNAKNTVYLQMNSLKPEDTAVYYCNVGYIFVSFRYDYWGQGTQVTVSS", "polyreactivity (PSR sort gate)": "low polyreactivity"}, {"sequence": "QVQLVESGGGLVQAGGSLRLSCAASGSTFGYYAMGWYRQAPGKERELVAAITWSGGSTSYADSVKGRFTISRENAKNSVYLQMNSLKPEDTAVYYCAAQYKKGRGAKRTYYGGWLEYCGQGTQVTVSS", "polyreactivity (PSR sort gate)": "low polyreactivity"}, {"sequence": "QVQLVESGGGLVQAGGSLRLSCAASGSTFGYYAMGWYRQAPGKERELVAVIRRGGSTNYADSVKGRFTISRENAKNTVYLQMHSLKPEDTAVYYCAKSQRGTVYSYYYWGQGSQVTVSS", "polyreactivity (PSR sort gate)": "high polyreactivity"}, {"sequence": "QVQLVESGGGLVQAGGSLRLSCAASGSTFGYYAMGWYRQAPRKERELVAVITRGGSTYYADSVKGRFTISRDNAKNTVYVQMNSLKPEDTAVYYCNARVQAVHYGYWGQGTEVTVSS", "polyreactivity (PSR sort gate)": "high polyreactivity"}, {"sequence": "QVQLVESGGGLVQAGGSLRLSCAASGSTFGYYAMGWYRQAPVKERELVAAISAGDRTYYADSVKGRFTISRDNATNTLYLQMNSLKPEDTAVYYSAARPLRSRNGYYWGQGTQGTVSS", "polyreactivity (PSR sort gate)": "high polyreactivity"}, {"sequence": "QVQLVESGGGLVQAGGSLRLSCAASGSTFGYYGMGRYRQAPGKERELVASIDSRGDSTYADSVKGRFTISRDNAKNTVYLQMNSLKPEDTSVYYCADDSWYTWFDSWGQGTQVTVSS", "polyreactivity (PSR sort gate)": "low polyreactivity"}, {"sequence": "QVQLVESGGGLVQAGGSLRLSCAASGSTFGYYSMGWYRQAPGKERELVAAIRYSGGTTYYADSVKGRYTISRDNAKNTVYLQMNSLKPEDTAVYYCAAVYTSGYYYWGQGTQVTVSS", "polyreactivity (PSR sort gate)": "high polyreactivity"}, {"sequence": "QVQLVESGGGLVQAGGSLRLSCAASGSTFGYYTMGWYRQAPGKERELVAAITWLGGRTYYADSVKGRFTISRDNAKNTVYLQMNSLKPEDTAVYYCAARSTVLMDYWGQGTQVTVSS", "polyreactivity (PSR sort gate)": "high polyreactivity"}, {"sequence": "QVQLVESGGGLVQAGGSLRLSCAASGSTFGYYTMGWYRQAPGKERELVASIDVSGDSTSYADSVKGRLTISRDNAKNTVYLQMNSLKPEDTAVYYCNTGRYPTSPTHNYWGQGTQVTVSS", "polyreactivity (PSR sort gate)": "low polyreactivity"}, {"sequence": "QVQLVESGGGLVQAGGSLRLSCAASGSTFHFYAMGWYRQAPGKESELVAAITWSGGTTYYADSVKGRFTISRDNAKNTVYFQMNSLKPEDTGVYYCATGQSVIYRYEYWGQGTQVTVSS", "polyreactivity (PSR sort gate)": "low polyreactivity"}, {"sequence": "QVQLVESGGGLVQAGGSLRLSCAASGSTFHGNAMGWYRQAPGKERELVAAISRSGGSTYYADSVKGRFTISRDNEKNTVYLQMNSLKPEDNAVYYCAADRPYYPLKYDYWGQGTQVTVSS", "polyreactivity (PSR sort gate)": "high polyreactivity"}, {"sequence": "QVQLVESGGGLVQAGGSLRLSCAASGSTFHGYDMGWYRQAPGKERELVAAITSSGDDTYYADSVKGRFTISRDNAKNTVYLQMNSLKPEDTAVYYCAAEYTEGYTHDYWGQGTQVNVSS", "polyreactivity (PSR sort gate)": "low polyreactivity"}, {"sequence": "QVQLVESGGGLVQAGGSLRLSCAASGSTFHIYAMGWYRQAPGKERELVAGITRGSTYYADSVKGRFTISRDNAKNTVYLQMNSLKPEDTAVYYCAADVYGFRYSESDYWGQGTQVTVSS", "polyreactivity (PSR sort gate)": "low polyreactivity"}, {"sequence": "QVQLVESGGGLVQAGGSLRLSCAASGSTFHPNAMGWYRQAPGKERELVAISSGDDTYYADSVKGRFTISRDIAKNTVYLQMKSLKPEDTAVYYCAAEYSFIYYWGQGTQVTVSS", "polyreactivity (PSR sort gate)": "low polyreactivity"}, {"sequence": "QVQLVESGGGLVQAGGSLRLSCAASGSTFHPNGMGWYRQAPGKERELVAAIRRSGGSTYYADSVKGRFTISRDNAKNTVYLQMNSLKPEDTAVYYCAAKHYYYSPYVRYDPPPGYYWGQGTQVTVSS", "polyreactivity (PSR sort gate)": "high polyreactivity"}, {"sequence": "QVQLVESGGGLVQAGGSLRLSCAASGSTFHQNTMGWYRQAPVKEREMVAAISWTGGGTYYADSVKGRYTISRDNAKNTVYLQMNSLKPEDTAVYYCAADYSDFWGFRYYYWGQGTQVNVSS", "polyreactivity (PSR sort gate)": "low polyreactivity"}]}]}
